# Values quoted from earlier work as cited in PMC3478875.
# Where two headings read alike, the source gives them in different places.
# Key:
# [1] = molecular target: plasminogen (Homo sapiens) (UniProt P00747)
# [2] = molecular target: plasminogen (Homo sapiens) (UniProt P00747); remark: listed apart in the source
# plasmin (Homo sapiens) = plasmin (Homo sapiens) (UniProt P00747)
# [3] = molecular target: plasminogen (Homo sapiens) (UniProt P00747); remark: listed apart in the source
# [4] = molecular target: Glu-plasminogen (Homo sapiens) (UniProt P00747)
# [5] = molecular target: Glu-plasminogen (Homo sapiens) (UniProt P00747); remark: listed apart in the source
# [6] = molecular target: Lys-plasminogen (Homo sapiens) (UniProt P00747)
substance,measurement,setting,value
DnaK (from UniProt B8DT62),Kd,[1],12 nM
"Fructose-1,6-bisphosphate aldolase (from UniProt P9WQA2)",Kd,[2],6.73 nM
GAPDH (from UniProt Q59906),Kd,plasmin (Homo sapiens),25 nM
same,Kd,[3],220 nM
Outer surface protein A (OspA) (from UniProt Q09087),Kd,[4],260000 nM
alpha-enolase (from UniProt P69949),Kd,[5],1.6 nM
same,Kd,[6],127 nM
